Measurements from publication PMC2192576 (1996).

T1: influenza virus (A/PR/8/34) HA (hemagglutinin) peptide on HLA-DRA*01:01 / HLA-DRB1*07:01 (human)
T1 peptide: PKYVKQNTLKLAT

T2: influenza virus (A/PR/8/34) HA (hemagglutinin) peptide on HLA-DRA*01:01 / HLA-DRB1*04:01 (human)
T2 peptide: PKYVKQNTLKLAT

B1: JS515.11 TCR (TCR, V domains shown)
Valpha: QSVTQLGSHVSVSEGALVLLRCNYSSSVPPYLFWYVQYPNQGLQLLLKYTTGATLVKGINGFEAEFKKSETSFHLTKPSAHMSDAAEYFCAVSEGGGSEKLVFGKGTKLTVNP
Vbeta: DVKVTQSSRYLVKRTGEKVFLECVQDMDHENMFWYRQDPGLGLRLIYFSYDVEMKEKGDIPEGYSVSREKKERFSLILESASTNQTSMYLCASSPGTSGTTYEQYFGPGTRLTVT
B2: 3BC6.6 TCR (TCR, V domains shown)
Valpha: QSVTQLGSHVSVSEGALVLLRCNYSSSVPPYLFWYVQYPNQGLQLLLKYTSAATLVKGINGFEAEFKKSETSFHLTKPSAHMSDAAEYFCAVSEDTSYDKVIFGPGTSLSVIP
Vbeta: DVKVTQSSRYLVKRTGEKVFLECVQDMDHENMFWYRQDPGLGLRLIYFSYDVEMKEKGDIPEGYSVSREKKERFSLILESASTNQTSMYLCASSLTTSGYTFGSGTRLTVV
B3: hybrid TCR: 3BC6.6 TCRA with JS515.11 TCRB (TCR, V domains shown)
Valpha: QSVTQLGSHVSVSEGALVLLRCNYSSSVPPYLFWYVQYPNQGLQLLLKYTSAATLVKGINGFEAEFKKSETSFHLTKPSAHMSDAAEYFCAVSEDTSYDKVIFGPGTSLSVIP
Vbeta: DVKVTQSSRYLVKRTGEKVFLECVQDMDHENMFWYRQDPGLGLRLIYFSYDVEMKEKGDIPEGYSVSREKKERFSLILESASTNQTSMYLCASSPGTSGTTYEQYFGPGTRLTVT
B4: hybrid TCR: JS515.11 TCRA with 3BC6.6 TCRB (TCR, V domains shown)
Valpha: QSVTQLGSHVSVSEGALVLLRCNYSSSVPPYLFWYVQYPNQGLQLLLKYTTGATLVKGINGFEAEFKKSETSFHLTKPSAHMSDAAEYFCAVSEGGGSEKLVFGKGTKLTVNP
Vbeta: DVKVTQSSRYLVKRTGEKVFLECVQDMDHENMFWYRQDPGLGLRLIYFSYDVEMKEKGDIPEGYSVSREKKERFSLILESASTNQTSMYLCASSLTTSGYTFGSGTRLTVV
B5: JS515.11 TCR with Thr-51 substituted with Ser in CDR2 of the alpha chain (TCR, V domains shown)
Valpha: QSVTQLGSHVSVSEGALVLLRCNYSSSVPPYLFWYVQYPNQGLQLLLKYTSGATLVKGINGFEAEFKKSETSFHLTKPSAHMSDAAEYFCAVSEGGGSEKLVFGKGTKLTVNP
Vbeta: DVKVTQSSRYLVKRTGEKVFLECVQDMDHENMFWYRQDPGLGLRLIYFSYDVEMKEKGDIPEGYSVSREKKERFSLILESASTNQTSMYLCASSPGTSGTTYEQYFGPGTRLTVT
B6: JS515.11 TCR with Gly-52 substituted with Ala in CDR2 of the alpha chain (TCR, V domains shown)
Valpha: QSVTQLGSHVSVSEGALVLLRCNYSSSVPPYLFWYVQYPNQGLQLLLKYTTAATLVKGINGFEAEFKKSETSFHLTKPSAHMSDAAEYFCAVSEGGGSEKLVFGKGTKLTVNP
Vbeta: DVKVTQSSRYLVKRTGEKVFLECVQDMDHENMFWYRQDPGLGLRLIYFSYDVEMKEKGDIPEGYSVSREKKERFSLILESASTNQTSMYLCASSPGTSGTTYEQYFGPGTRLTVT

Tests used:
[1] = molecular target: T1, influenza virus (A/PR/8/34) HA …; test: cytokine release
[2] = molecular target: T2, influenza virus (A/PR/8/34) HA …; test: cytokine release

| Binder | binding result [1] | binding result [2] |
| --- | --- | --- |
| B1 | recognises | recognises |
| B2 | no recognition | recognises |
| B3 | no recognition | no recognition |
| B4 | no recognition | no recognition |
| B5 | recognises | – |
| B6 | recognises | – |
